From patent publication US20210047372A1 (Affibody, published 2021)

Tests used:
Experiment in all cases: SPR, Biacore T200; target immobilized on CM5, His6-tagged Y variant injected; 1:1 Langmuir
interleukin 6 (IL-6) = target: T1, interleukin 6 (IL-6) (UniProt P05231 30-212)
T1 construct: also called b-IL-6
Procedure: (§1) Kinetic constants (kₐ and kd) and affinities (KD) were determined for Hiss-tagged Y variants using a Biacore T200 instrument (GE Healthcare). Target proteins C4, IL-6 and insulin, respectively, were immobilized in separate flow cells on the carboxylated dextran layer of different CM5 chip surfaces (GE Healthcare).
(§2) Immobilization was performed using amine coupling chemistry according to the manufacturer's protocol and PBS pH 7.4 supplemented with 0.1 Tween20 (PBST 0.1%) as running buffer. The ligand immobilization levels on the surfaces were 3280-8830 RU for C4, 495-1184 RU for IL-6, and 270-282 RU for insulin. One flow cell surface on each chip was activated and deactivated for use as blank during analyte injections. In the kinetic experiment, PBST 0.1% was used as running buffer at a flow rate of 30 μl/min. The analytes, i.e. Y variants, were each diluted in PBST 0.1 buffer at concentrations of 1000, 500, 100, 50 and 10 nM and injected for 5 min, followed by dissociation in running buffer for 3 min. After dissociation, the surfaces were regenerated with one injection of 30 μl 10 mM HCl. Kinetic constants were calculated from the sensorgrams using the Langmuir 1:1 model of Biacore T200 Evaluation software 2.0 (GE Healthcare).

[1] = target: T2, complement component 4 (C4) (UniProt P0C0L4 20-675; P0C0L4 680-1446; P0C0L4 1454-1744, limits assumed)
T2 construct: Natural C4 is a three-chain protein (alpha, beta, gamma) made from one precursor; Biotinylated for ELISA, amine-coupled to the chip for SPR; also called b-C4
T2 sequence (P0C0L4 20-675 limits assumed, chain 1 of 3): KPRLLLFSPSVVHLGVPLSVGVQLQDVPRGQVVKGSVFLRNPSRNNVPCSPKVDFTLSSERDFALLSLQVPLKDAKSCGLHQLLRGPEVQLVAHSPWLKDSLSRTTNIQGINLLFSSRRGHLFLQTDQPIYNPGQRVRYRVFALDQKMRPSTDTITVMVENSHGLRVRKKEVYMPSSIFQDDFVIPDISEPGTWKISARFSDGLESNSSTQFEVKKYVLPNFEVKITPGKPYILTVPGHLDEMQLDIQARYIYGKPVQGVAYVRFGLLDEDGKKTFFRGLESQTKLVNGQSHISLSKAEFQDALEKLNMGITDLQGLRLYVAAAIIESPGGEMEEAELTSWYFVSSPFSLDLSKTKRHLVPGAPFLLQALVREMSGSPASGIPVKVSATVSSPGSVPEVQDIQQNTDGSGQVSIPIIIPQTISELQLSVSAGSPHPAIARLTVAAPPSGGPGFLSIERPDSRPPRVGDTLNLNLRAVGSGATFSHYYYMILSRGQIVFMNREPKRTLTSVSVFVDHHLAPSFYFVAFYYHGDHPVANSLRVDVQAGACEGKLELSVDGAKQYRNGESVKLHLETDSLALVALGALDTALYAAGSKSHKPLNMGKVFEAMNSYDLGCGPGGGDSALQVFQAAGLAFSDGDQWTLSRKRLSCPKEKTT
T2 sequence (P0C0L4 680-1446 limits assumed, chain 2 of 3): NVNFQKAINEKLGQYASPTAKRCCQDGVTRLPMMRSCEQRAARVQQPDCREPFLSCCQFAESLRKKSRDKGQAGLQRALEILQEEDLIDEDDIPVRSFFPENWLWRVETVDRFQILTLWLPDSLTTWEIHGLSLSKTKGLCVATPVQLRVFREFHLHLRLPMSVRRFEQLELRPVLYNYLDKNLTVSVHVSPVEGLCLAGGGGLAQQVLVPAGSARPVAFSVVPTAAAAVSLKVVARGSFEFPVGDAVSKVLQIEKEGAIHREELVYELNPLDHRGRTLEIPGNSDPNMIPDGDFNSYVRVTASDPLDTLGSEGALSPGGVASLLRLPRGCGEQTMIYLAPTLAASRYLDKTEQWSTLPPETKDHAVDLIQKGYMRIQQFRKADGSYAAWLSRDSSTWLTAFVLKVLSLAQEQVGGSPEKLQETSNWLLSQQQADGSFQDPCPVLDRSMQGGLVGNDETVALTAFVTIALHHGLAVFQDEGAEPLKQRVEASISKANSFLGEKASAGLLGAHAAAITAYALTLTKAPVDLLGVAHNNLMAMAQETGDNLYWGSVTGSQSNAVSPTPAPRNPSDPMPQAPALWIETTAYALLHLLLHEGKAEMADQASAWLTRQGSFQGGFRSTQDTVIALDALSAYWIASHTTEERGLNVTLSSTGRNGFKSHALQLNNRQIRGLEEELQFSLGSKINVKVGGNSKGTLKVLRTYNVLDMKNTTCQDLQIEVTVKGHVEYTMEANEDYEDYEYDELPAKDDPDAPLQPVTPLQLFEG
T2 sequence (P0C0L4 1454-1744 limits assumed, chain 3 of 3): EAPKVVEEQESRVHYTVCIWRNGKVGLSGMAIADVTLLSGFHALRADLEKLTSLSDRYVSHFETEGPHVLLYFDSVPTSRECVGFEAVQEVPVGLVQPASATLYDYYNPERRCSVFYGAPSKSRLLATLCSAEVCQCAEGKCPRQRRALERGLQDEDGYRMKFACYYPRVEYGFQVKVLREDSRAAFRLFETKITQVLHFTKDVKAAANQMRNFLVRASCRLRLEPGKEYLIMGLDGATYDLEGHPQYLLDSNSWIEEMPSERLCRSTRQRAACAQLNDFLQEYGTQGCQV
Procedure: as §1, §2

insulin = target: T3, insulin (UniProt P01308 25-54; P01308 90-110, limits assumed)
T3 construct: Mature insulin has two chains (A and B) from one precursor; also called b-insulin
T3 sequence (P01308 25-54 limits assumed, form in doubt, chain 1 of 2): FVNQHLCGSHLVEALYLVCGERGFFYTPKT
T3 sequence (P01308 90-110 limits assumed, form in doubt, chain 2 of 2): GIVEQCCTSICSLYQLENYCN
Procedure: as §1, §2

Binder	Kd (interleukin 6 (IL-6)) [nM]	koff (interleukin 6 (IL-6)) [s⁻¹]	kon (interleukin 6 (IL-6)) [M⁻¹ s⁻¹]	Kd (insulin) [nM]	other results
Y00035 (designed binder, From library Ylib001Naive.I) MGSSHHHHHHGSSLAEAKEAANAELDSYGVQANSIEAIEQGLFVEVVELLKELILAALPASGSVD	360	–	–	–	–
Y02309 (designed binder, From library Ylib002Naive.I) MGSSHHHHHHGSSLAEAKEAAIAELDSKGVGADLIKKIQKAESVEGVQFWKQEILATLPA	–	–	–	–	Kd [1]: 70 nM; koff [1]: 0.0025 s⁻¹; kon [1]: 36000 M⁻¹ s⁻¹
Y00792 (designed binder, From library Ylib002Naive.I) MGSSHHHHHHGSSLAEAKEAAIAELDSKGVGADLIKKIQQASSVEGVQFWKQEILAQLPA	–	–	–	–	Kd [1]: 62 nM; koff [1]: 0.0017 s⁻¹; kon [1]: 27000 M⁻¹ s⁻¹
Y02330 (designed binder, From library Ylib002Naive.I) MGSSHHHHHHGSSLAEAKEAAIAELDSKGVGAELIKKIQHAESVEGVQFWKQEILAYLPA	–	–	–	–	Kd [1]: 48 nM; koff [1]: 0.0046 s⁻¹; kon [1]: 96000 M⁻¹ s⁻¹
Y02444 (designed binder, From library Ylib002Naive.I; also called Y002444) MGSSHHHHHHGSSLAEAKEAAIAELDSKGVGAVEIKQIQEALLVEIVQLLKQAILAVLPA	61	0.0055	90000	–	–
Y02374 (designed binder, From library Ylib002Naive.I) MGSSHHHHHHGSSLAEAKEAAIAELDSKGVGAAEIKRIQAAELVEIVQLLKQAILAVLPA	120	0.0017	14000	–	–
Y02415 (designed binder, From library Ylib002Naive.I) MGSSHHHHHHGSSLAEAKEAAIAELDSKGVGAGDIKDIQDALLVEIVQLLKQAILAVLPA	160	0.0015	9700	–	–
Y02697 (designed binder, Y02444 with I9L) MGSSHHHHHHGSSLAEAKEAALAELDSKGVGAVEIKQIQEALLVEIVQLLKQAILAVLPA	150	0.009	50000	–	–
Y02698 (designed binder, Y02444 with K15Y) MGSSHHHHHHGSSLAEAKEAAIAELDSYGVGAVEIKQIQEALLVEIVQLLKQAILAVLPA	120	0.0033	28000	–	–
Y02703 (designed binder, Y02444 with K15Y + Q26E) MGSSHHHHHHGSSLAEAKEAAIAELDSYGVGAVEIKQIEEALLVEIVQLLKQAILAVLPA	120	0.0025	21000	–	–
Y02701 (designed binder, Y02415 with K15Y) MGSSHHHHHHGSSLAEAKEAAIAELDSYGVGAGDIKDIQDALLVEIVQLLKQAILAVLPA	210	0.0036	21000	–	–
Y02465 (designed binder, From library Ylib002Naive.I) MGSSHHHHHHGSSLAEAKEAAIAELDSKGVGANHIKAIQHAQFVEIVQLLKQAILAVLPA	270	0.0021	7500	–	–
Y02699 (designed binder, Y02444 with Q26E) MGSSHHHHHHGSSLAEAKEAAIAELDSKGVGAVEIKQIEEALLVEIVQLLKQAILAVLPA	200	0.0029	19000	–	–
Y02702 (designed binder, Y02415 with Q26E) MGSSHHHHHHGSSLAEAKEAAIAELDSKGVGAGDIKDIEDALLVEIVQLLKQAILAVLPA	440	0.007	16000	–	–
Y02447 (designed binder, From library Ylib002Naive.I) MGSSHHHHHHGSSLAEAKEAAIAELDSKGVGAHGIKEIQDAILVEIVQLLKQAILAALPA	160	0.0017	11000	–	–
Y02700 (designed binder, Y02415 with I9L) MGSSHHHHHHGSSLAEAKEAALAELDSKGVGAGDIKDIQDALLVEIVQLLKQAILAVLPA	62	0.0025	46000	–	–
Y02495 (designed binder, From library Ylib002Naive.I) MGSSHHHHHHGSSLAEAKEAAIAELDSKGVGAEEIKEIQGAMLVEIVQLLKQAILAVLPA	240	0.0017	7100	–	–
Y00296a (designed binder, if it is only 46 residues long, ASYGS must be added at the C-terminus) MGSSHHHHHHGSSLAEAKEAAIAELDSKGVGAYQIKFIQLAKSVEHVQLLKQAILADLPASYGS	–	–	–	22	–
Y02303 (designed binder, From library Ylib002Naive.I) MGSSHHHHHHGSSLAEAKEAAIAELDSKGVGAEEIKWIQNAWSVEGVQIMKQQILAELPA	–	–	–	–	Kd [1]: 2200 nM; koff [1]: 0.21 s⁻¹; kon [1]: 96000 M⁻¹ s⁻¹

Binder	Kd (interleukin 6 (IL-6)) [nM]	koff (interleukin 6 (IL-6)) [s⁻¹]	kon (interleukin 6 (IL-6)) [M⁻¹ s⁻¹]	Kd (insulin) [nM]	other results
Y02337 (designed binder, From library Ylib002Naive.I) MGSSHHHHHHGSSLAEAKEAAIAELDSKGVGAAEIKWIQHASTVEGVQGRKQQILAELPA	–	–	–	–	Kd [1]: 1900 nM; koff [1]: 0.81 s⁻¹; kon [1]: 420000 M⁻¹ s⁻¹
Y00296C (designed binder, if it is only 46 residues long, TIDEWL must be put before it) MGSSHHHHHHTIDEWLLAEAKEAAIAELDSKGVGAYQIKFIQLAKSVEHVQLLKQAILADLP	–	–	–	51	–
Y00296b (designed binder, if it is only 46 residues long, GYS must be added) MGSSHHHHHHGSSLAEAKEAAIAELDSKGVGAYQIKFIQLAKSVEHVQLLKQAILADLPGYS	–	–	–	31	–
Y00263 (designed binder, Y00032 with D13K) MGSSHHHHHHGSSLAEAKEAAIAELKSKGVGAYQKSFIELAKSVEHVELLKEAILADLP	–	–	–	130	–
Y00273 (designed binder, Y00032 with E32Q) MGSSHHHHHHGSSLAEAKEAAIAELDSKGVGAYQKSFIELAKSVQHVELLKEAILADLP	–	–	–	77	–
Y00265 (designed binder, Y00032 with V17I) MGSSHHHHHHGSSLAEAKEAAIAELDSKGIGAYQKSFIELAKSVEHVELLKEAILADLP	–	–	–	120	–
Y00272 (designed binder, Y00032 with A28G) MGSSHHHHHHGSSLAEAKEAAIAELDSKGVGAYQKSFIELGKSVEHVELLKEAILADLP	–	–	–	110	–
Y00271 (designed binder, Y00032 with E26Q) MGSSHHHHHHGSSLAEAKEAAIAELDSKGVGAYQKSFIQLAKSVEHVELLKEAILADLP	–	–	–	47	–
Y00264 (designed binder, Y00032 with K15Y) MGSSHHHHHHGSSLAEAKEAAIAELDSYGVGAYQKSFIELAKSVEHVELLKEAILADLP	–	–	–	64	–
Y00274 (designed binder, Y00032 with E35Q) MGSSHHHHHHGSSLAEAKEAAIAELDSKGVGAYQKSFIELAKSVEHVQLLKEAILADLP	–	–	–	56	–
Y00266 (designed binder, Y00032 with G18S) MGSSHHHHHHGSSLAEAKEAAIAELDSKGVSAYQKSFIELAKSVEHVELLKEAILADLP	–	–	–	56	–
Y00275 (designed binder, Y00032 with E39Q) MGSSHHHHHHGSSLAEAKEAAIAELDSKGVGAYQKSFIELAKSVEHVELLKQAILADLP	–	–	–	59	–
Y00268 (designed binder, Y00032 with K22I) MGSSHHHHHHGSSLAEAKEAAIAELDSKGVGAYQISFIELAKSVEHVELLKEAILADLP	–	–	–	84	–
Y00267 (designed binder, Y00032 with A19E) MGSSHHHHHHGSSLAEAKEAAIAELDSKGVGEYQKSFIELAKSVEHVELLKEAILADLP	–	–	–	59	–
Y00296 (designed binder, Y00293 with E26Q) MGSSHHHHHHGSSLAEAKEAAIAELDSKGVGAYQIKFIQLAKSVEHVQLLKQAILADLP	–	–	–	37	–
Y00269 (designed binder, Y00032 with S23K) MGSSHHHHHHGSSLAEAKEAAIAELDSKGVGAYQKKFIELAKSVEHVELLKEAILADLP	–	–	–	390	–
Y00276 (designed binder, Y00032 with A43K) MGSSHHHHHHGSSLAEAKEAAIAELDSKGVGAYQKSFIELAKSVEHVELLKEAILKDLP	–	–	–	76	–
Y00032 (designed binder) MGSSHHHHHHGSSLAEAKEAAIAELDSKGVGAYQKSFIELAKSVEHVELLKEAILADLPASGSVD	–	–	–	50	–
Y00125 (designed binder, Differs from Y00032 only in position 9 (N instead of I)) MGSSHHHHHHGSSLAEAKEAANAELDSKGVGAYQKSFIELAKSVEHVELLKEAILADLPASGSVD	–	–	–	110	–
